Measured values as given in article PMC8173049.

Tests used:
[1] = molecular target: HAdV-B35 capsid (replication-defective, E1-deleted vector particle with a YFP expression cassette) (human adenovirus B35); test: SPR; BIAcore 3000; HAdV particles amine-coupled to a CM5 chip (3,500-4,000 RU, diluted in acetate buffer pH 4); lactoferrin 6.25-200 nM injected at 30 µl/min, 180 s association, 600 s dissociation; HBS-EP buffer (10 mM HEPES, 150 mM NaCl, 3 mM EDTA, 0.005% polysorbate 20, pH 7.4); bivalent fitting model
[2] = molecular target: HAdV-C5 capsid (replication-defective, E1-deleted vector particle with a GFP expression cassette) (human adenovirus C5) (UniProt P04133); test: as above

Question: How did the Kd [1] turn out when human lactoferrin (natural protein) was run?
Answer: 54 µM

Question: And the Kd [2]?
Answer: 0.8 µM
